B1: HapR BS 1 probe (32 bp) (dsDNA)
DNA 1: TAGGTTTGTTAGTGTTTACTTACTTATTTGGC
DNA 2: GCCAAATAAGTAAGTAAACACTAACAAACCTA
modifications: Cy5-dCTP added to the 3' end of one strand by TdT (strand not stated)
B2: HapR BS 2 probe (32 bp) (dsDNA)
DNA 1: AATTGCAATTGATAAATTTCTTGGCTAGGTGT
DNA 2: ACACCTAGCCAAGAAATTTATCAATTGCAATT
modifications: Cy5-dCTP added to the 3' end of one strand by TdT (strand not stated)

Target: HapR (Vibrio cholerae E7946 (El Tor), UniProt Q4F6W7 1-203)
Assay: EMSA

Row | Binder | binding result
1 | B1 | binds
2 | B2 | binds

Reference: doi:10.1101/2020.04.16.045526
